Among the data in the supplement of paper PMC5949888 are growth estimate values, retold here.

The data set relates to Saccharomyces cerevisiae PS128 hsf1 delta, HSF1(1-493) fusion. Briefly: growth estimate (transactivation domain function in HSF1 fusion, heat-shock survival) (a.u. (slope of normalised read count over time)); higher = stronger growth at 37°C, i.e. more transactivation activity. The settings on record: library: design library. A digest of the protocol: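 Transactivation-domain oligos were designed and fused to a truncated yeast HSF1 (amino acids 1–493), then expressed in a yeast strain lacking hsf1. Replica plating onto –trp 5-FOA plates was followed by incubation at 30°C or 37°C for 0, 2, 4, 6 and 8 days. Inserts were amplified by PCR and sequenced on an Illumina MiSeq as six barcoded replicates from a single experiment. The growth estimate is the slope of a robust linear fit over time of read counts normalised to sample totals and to starting count.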
As to DLDESADYIFETTE, the growth estimate is -0.127.

In the case of QQNGEIARLWDFN, the growth estimate is -0.234.

Regarding DLDEAWDYIFETTE, the growth estimate is 1.45. As to EDDDEFKLWDSML, the growth estimate is 0.0998.

DPDLDMLGDFDLDMLG: the growth estimate was 4.23. For the sequence MLSSHGFSPDTSALLDLFSP, the growth estimate was 0.374. The figure for PMDDVYNYLFDD is 1.41; for DELSWIPELLEKDG it is -0.091. Next, PEFPGIELQELPELQALLQQ: -0.22; QQGGEIAQLWDFN: 0.0021. Next, PEKPGIELQELQELQALLQQ: -0.204; DELSWIIELPEKDG: -0.237; DFDLDMLGDFDLDMKG: 3.28. In the case of PFPDTPDDFLKWWRSEEAQ, the growth estimate is 0.819. Next, VADDPWEELLSEDL: -0.214; EFNDLLDPDFILSN: -0.0736; EDLYSILWSDGY: 0.303. With QKNGEIAQLWDFN, the growth estimate is below -0.25. Regarding DEASWIIELLEKDG, the growth estimate is -0.123.

Regarding EDDDEKSLWDSML, the growth estimate is -0.0523.

For VADDIWEEALSEDL, the growth estimate is -0.233. The figure for DELSWIIEGLEKDG is below -0.25; for EFNDLLDLDFPLSN it is 1.64; for VADDIWKELLSEDL it is 3.97.

With DLDPSWDYIFETTE, the growth estimate was 0.39.

Consider PFPATQDDFLKWWRSEEAQ, for which the growth estimate was below -0.25. For GFDYDFLFGNDFA, the growth estimate was 8.74. Regarding EDDDEFSLWDRML, the growth estimate was -0.15.

For DLDESWRYIFETTE, the growth estimate was 0.0438. The figure for MLSSHGFSVDTSALLDLFAP is -0.0921. For the sequence LFDYDFLPGNDFA, the growth estimate is -0.232.

Take MLSSHGFKVDTSALLDLFSP: the growth estimate is below -0.25. The figure for PFPDTQDDFLKWWRSEAAQ is -0.154. PEFPGIELRELQELQALLQQ: the growth estimate is 0.0112. For PELSWIIELLEKDG, the growth estimate is -0.201. Take EDDDEFSLWDSGL: the growth estimate is -0.19. Consider PEFPGIELQELQELQRLLQQ, for which the growth estimate was -0.177. Next, MLSSHGFSVKTSALLDLFSP: -0.0119. The figure for PEFKGIELQELQELQALLQQ is below -0.25; for PFDLDMLGDFDLDMLG it is 4.25; for GDLYSILWSDVY it is -0.212. Next, PEFPGIELQELQELQGLLQQ: below -0.25. Take VAGDIWEELLSEDL: the growth estimate was 0.447. For VADDIWEGLLSEDL, the growth estimate was 0.676.

Consider EFNDGLDLDFILSN, for which the growth estimate was -0.0825. On to EFNDLLDLDFILSR, for which the growth estimate is 0.761.

Turning to PEFRGIELQELQELQALLQQ, the growth estimate is -0.124. On to DFDLRMLGDFDLDMLG, for which the growth estimate was 6.25. Consider PFPDTQDDFLKPWRSEEAQ, for which the growth estimate is below -0.25. On to TMDDVYNRLFDD, for which the growth estimate is -0.242. Regarding EDLASILWSDVY, the growth estimate is -0.161. Next, MLSSHGFSVDPSALLDLFSP: -0.0885; EGDDEFSLWDSML: 0.054; EDLYSIPWSDVY: -0.196.

As to EFNDLLDLRFILSN, the growth estimate was below -0.25.

Take PFPDTQDDFLKWWRSEEAK: the growth estimate was -0.25. The figure for DLDESWDYIFETTP is 3.58. The figure for LFDYDFLFGKDFA is 2.49; for DFDLDMLGDFDLDMPG it is 17.2. The figure for VADDIWEELGSEDL is -0.221; for MLSSHGASVDTSALLDLFSP it is -0.0827. Turning to EFNDLADLDFILSN, the growth estimate was 0.121.

VARDIWEELLSEDL: the growth estimate is 2.59. Take MLSSHGGSVDTSALLDLFSP: the growth estimate is -0.112. Next, DFDLDMLGDFDLDMLR: 6.97. The figure for DLDESWDYIGETTE is -0.243; for EFNDLLDLDFGLSN it is 4.29.

For DELSWIIGLLEKDG, the growth estimate was -0.0196. The figure for DFALDMLGDFDLDMLG is 3.21; for EDLYSILWSRVY it is -0.0908. Next, PFPDTQDDFLKWWPSEEAQ: 3.12; MLSSAGFSVDTSALLDLFSP: -0.0464; PEPPGIELQELQELQALLQQ: below -0.25. Next, EFNDLLDLDFILSN: 1.51; PFPDTQDDPLKWWRSEEAQ: below -0.25.
